System: Arabidopsis thaliana HPPD
Experiment: Assay for HPPD activity (4-HPP consumption, DNP photometric readout at 405 nm) in presence and absence of Tembotrione
Assay type: biochemical
Conditions: uninhibited enzyme activity set to 100%, 444 nM HPPD, 500 μM 4-HPP, 1 h room temperature
Protocol: HPPD produces homogentisate and CO2 from 4-HPP and O2. The enzyme is incubated with its substrate 4-HPP in the presence or absence of an inhibitor. L-ascorbic acid is present as a reductant to retain the active site iron in the ferrous form and Catalase is present to degrade toxic H2O2. After an incubation time of one hour, the reaction is stopped by addition of 2,4-Dinitrophenylhydrazine (DNP). DNP forms a hydrazone derivative with the remaining 4-HPP molecules in the assay mixture which appears in an amber-brown colour at an alkaline pH. The amount of unconsumed 4-HPP is measured photometrically at 405 nm.
For preparation of inhibitor stock solutions, Tembotrione (MW=440.82) and DKN (Mw=359.3) are dissolved in DMSO to a concentration of 10 mM. […] Further dilutions are made with ddH2O to obtain the inhibitor solutions used in the assay (5 μM, 10 μM and 20 μM). […] A 2% DMSO solution provides for half of the assay mixture in uninhibited reactions to normalize a possible inhibiting effect of DMSO.
The assay is designed for a HPPD concentration of 444 nM on a monomeric basis and a 4-HPP concentration of 500 μM. This corresponds to 44.4 pmol HPPD and 50 nmol 4-HPP in a 100 μL-assay mixture, resulting in an approximate 1000-fold excess of substrate in relation to the enzyme. The calculated theoretical molecular weight of an AtHPPD subunit is 49.515 kD which results in 2.2 μg HPPD per assay mixture. The calculated theoretical molecular weight of a PfHPPD subunit is 41.205 kD, resulting in 1.8 μg HPPD per assay mixture. The enzyme solution provides for one quarter of the assay mixture volume, so enzyme stock solutions are produced by diluting AtHPPD solutions to 88 μg*mL^−1 with 50 mM TRIS buffer; PfHPPD solutions are diluted to 72 μg*mL^−1.
The inhibitor concentrations (2.5 μM, 5 μM and 10 μM) provide for 5-fold, 10-fold and 20-fold excess of inhibitor compared to the amount of enzyme. A buffer/substrate solution is prepared which provides for one quarter of the assay mixture. 2.5 mL of buffer/substrate solution contain 1 mL 1 M TRIS buffer, 500 μL 10 mM 4-HPP solution, 500 μL 200 mM L-ascorbic acid solution, 13 μL Catalase solution and 487 μL ddH2O. The assay is carried out in Greiner F-bottom 96 well microplates and all reactions are carried out as triplicates. The controls are carried out sixfold per plate and contain either 25 μL 50 mM TRIS instead of HPPD solution (corresponding to 0% consumption of 4-HPP) or a buffer/substrate solution that contains 500 μL 1 M TRIS instead of 500 μL 10 mM 4-HPP (corresponding to 100% consumption of HPP). The reaction is started by addition of 25 μL HPPD solution to a mixture of 50 μL of the respective inhibitor solution or 50 μL 2% DMSO and 25 μL buffer/substrate solution. The reaction is allowed to proceed for 1 h at room temperature. The reaction is stopped and coloration of 4-HPP is induced by addition of 50 μL 0.04% DNP/3.8 N HCl solution. After 15 min, addition of 100 μL 5 N KOH leads to the colour shift of the hydrazone derivative. Photometric measurement with a BMG FLUOstar Galaxy microplate reader is carried out immediately at 405 nm and data obtained is used for analysis of HPPD activities in presence and absence of an inhibitor.

| Molecule | Relative activity (in percentage) of At HPPD mutants in presence of Tembotrione ([…] Tembotrione) [%] | Relative activity (in percentage) of At HPPD mutants in presence of Tembotrione (5 μM Tembotrione) | Relative activity (in percentage) of At HPPD mutants in presence of Tembotrione (10 μM Tembotrione) |
| --- | --- | --- | --- |
| Gly422 mutant Asn: Arabidopsis thaliana HPPD (SEQ ID NO 4) with Gly422 replaced by Asn, N-terminal His6-tag (protein, UniProt P93836 1-445, looked up, variant G422N, N-terminal His6-tag) 4-hydroxyphenylpyruvate …: MGHQNAAVSENQNHDDGAASSPGFKLVGFSKFVRKNPKSDKFKVKRFHHIEFWCGDATNVARRFSWGLGMRFSAKSDLSTGNMVHASYLLTSGDLRFLFTAPYSPSLSAGEIKPTTTASIPSFDHGSCRSFFSSHGLGVRAVAIEVEDAESAFSISVANGAIPSSPPIVLNEAVTIAEVKLYGDVVLRYVSYKAEDTEKSEFLPGFERVEDASSFPLDYGIRRLDHAVGNVPELGPALTYVAGFTGFHQFAEFTADDVGTAESGLNSAVLASNDEMVLLPINEPVHGTKRKSQIQTYLEHNEGAGLQHLALMSEDIFRTLREMRKRSSIGGFDFMPSPPPTYYQNLKKRVGDVLSDDQIKECEELGILVDRDDQGTLLQIFTKPLGDRPTIFIEIIQRVGCMMKDEEGKAYQSGGCGGFGKNNFSELFKSIEEYEKTLEAKQLVG | 39 |  |  |
| Asn (protein, UniProt P93836 1-445, looked up, variant G422N) 4-hydroxyphenylpyruvate …: MGHQNAAVSENQNHDDGAASSPGFKLVGFSKFVRKNPKSDKFKVKRFHHIEFWCGDATNVARRFSWGLGMRFSAKSDLSTGNMVHASYLLTSGDLRFLFTAPYSPSLSAGEIKPTTTASIPSFDHGSCRSFFSSHGLGVRAVAIEVEDAESAFSISVANGAIPSSPPIVLNEAVTIAEVKLYGDVVLRYVSYKAEDTEKSEFLPGFERVEDASSFPLDYGIRRLDHAVGNVPELGPALTYVAGFTGFHQFAEFTADDVGTAESGLNSAVLASNDEMVLLPINEPVHGTKRKSQIQTYLEHNEGAGLQHLALMSEDIFRTLREMRKRSSIGGFDFMPSPPPTYYQNLKKRVGDVLSDDQIKECEELGILVDRDDQGTLLQIFTKPLGDRPTIFIEIIQRVGCMMKDEEGKAYQSGGCGGFGKNNFSELFKSIEEYEKTLEAKQLVG | 39 | 26% | 15% |
| Cys (protein, UniProt P93836 1-445, looked up, variant G422C) 4-hydroxyphenylpyruvate …: MGHQNAAVSENQNHDDGAASSPGFKLVGFSKFVRKNPKSDKFKVKRFHHIEFWCGDATNVARRFSWGLGMRFSAKSDLSTGNMVHASYLLTSGDLRFLFTAPYSPSLSAGEIKPTTTASIPSFDHGSCRSFFSSHGLGVRAVAIEVEDAESAFSISVANGAIPSSPPIVLNEAVTIAEVKLYGDVVLRYVSYKAEDTEKSEFLPGFERVEDASSFPLDYGIRRLDHAVGNVPELGPALTYVAGFTGFHQFAEFTADDVGTAESGLNSAVLASNDEMVLLPINEPVHGTKRKSQIQTYLEHNEGAGLQHLALMSEDIFRTLREMRKRSSIGGFDFMPSPPPTYYQNLKKRVGDVLSDDQIKECEELGILVDRDDQGTLLQIFTKPLGDRPTIFIEIIQRVGCMMKDEEGKAYQSGGCGGFGKCNFSELFKSIEEYEKTLEAKQLVG | 44 | 27% | 19% |
| Gly422 mutant His: Arabidopsis thaliana HPPD (SEQ ID NO 4) with Gly422 replaced by His, N-terminal His6-tag (protein, UniProt P93836 1-445, looked up, variant G422H, N-terminal His6-tag) 4-hydroxyphenylpyruvate …: MGHQNAAVSENQNHDDGAASSPGFKLVGFSKFVRKNPKSDKFKVKRFHHIEFWCGDATNVARRFSWGLGMRFSAKSDLSTGNMVHASYLLTSGDLRFLFTAPYSPSLSAGEIKPTTTASIPSFDHGSCRSFFSSHGLGVRAVAIEVEDAESAFSISVANGAIPSSPPIVLNEAVTIAEVKLYGDVVLRYVSYKAEDTEKSEFLPGFERVEDASSFPLDYGIRRLDHAVGNVPELGPALTYVAGFTGFHQFAEFTADDVGTAESGLNSAVLASNDEMVLLPINEPVHGTKRKSQIQTYLEHNEGAGLQHLALMSEDIFRTLREMRKRSSIGGFDFMPSPPPTYYQNLKKRVGDVLSDDQIKECEELGILVDRDDQGTLLQIFTKPLGDRPTIFIEIIQRVGCMMKDEEGKAYQSGGCGGFGKHNFSELFKSIEEYEKTLEAKQLVG | 51 | about 40% | about 40% |
| Gly422 mutant Val: Arabidopsis thaliana HPPD (SEQ ID NO 4) with Gly422 replaced by Val, N-terminal His6-tag (protein, UniProt P93836 1-445, looked up, variant G422V, N-terminal His6-tag) 4-hydroxyphenylpyruvate …: MGHQNAAVSENQNHDDGAASSPGFKLVGFSKFVRKNPKSDKFKVKRFHHIEFWCGDATNVARRFSWGLGMRFSAKSDLSTGNMVHASYLLTSGDLRFLFTAPYSPSLSAGEIKPTTTASIPSFDHGSCRSFFSSHGLGVRAVAIEVEDAESAFSISVANGAIPSSPPIVLNEAVTIAEVKLYGDVVLRYVSYKAEDTEKSEFLPGFERVEDASSFPLDYGIRRLDHAVGNVPELGPALTYVAGFTGFHQFAEFTADDVGTAESGLNSAVLASNDEMVLLPINEPVHGTKRKSQIQTYLEHNEGAGLQHLALMSEDIFRTLREMRKRSSIGGFDFMPSPPPTYYQNLKKRVGDVLSDDQIKECEELGILVDRDDQGTLLQIFTKPLGDRPTIFIEIIQRVGCMMKDEEGKAYQSGGCGGFGKVNFSELFKSIEEYEKTLEAKQLVG | 43 |  |  |
| Gly422 mutant Cys: Arabidopsis thaliana HPPD (SEQ ID NO 4) with Gly422 replaced by Cys, N-terminal His6-tag (protein, UniProt P93836 1-445, looked up, variant G422C, N-terminal His6-tag) 4-hydroxyphenylpyruvate …: MGHQNAAVSENQNHDDGAASSPGFKLVGFSKFVRKNPKSDKFKVKRFHHIEFWCGDATNVARRFSWGLGMRFSAKSDLSTGNMVHASYLLTSGDLRFLFTAPYSPSLSAGEIKPTTTASIPSFDHGSCRSFFSSHGLGVRAVAIEVEDAESAFSISVANGAIPSSPPIVLNEAVTIAEVKLYGDVVLRYVSYKAEDTEKSEFLPGFERVEDASSFPLDYGIRRLDHAVGNVPELGPALTYVAGFTGFHQFAEFTADDVGTAESGLNSAVLASNDEMVLLPINEPVHGTKRKSQIQTYLEHNEGAGLQHLALMSEDIFRTLREMRKRSSIGGFDFMPSPPPTYYQNLKKRVGDVLSDDQIKECEELGILVDRDDQGTLLQIFTKPLGDRPTIFIEIIQRVGCMMKDEEGKAYQSGGCGGFGKCNFSELFKSIEEYEKTLEAKQLVG | 44 |  |  |
| Ser (protein, UniProt P93836 1-445, looked up, variant G422S) 4-hydroxyphenylpyruvate …: MGHQNAAVSENQNHDDGAASSPGFKLVGFSKFVRKNPKSDKFKVKRFHHIEFWCGDATNVARRFSWGLGMRFSAKSDLSTGNMVHASYLLTSGDLRFLFTAPYSPSLSAGEIKPTTTASIPSFDHGSCRSFFSSHGLGVRAVAIEVEDAESAFSISVANGAIPSSPPIVLNEAVTIAEVKLYGDVVLRYVSYKAEDTEKSEFLPGFERVEDASSFPLDYGIRRLDHAVGNVPELGPALTYVAGFTGFHQFAEFTADDVGTAESGLNSAVLASNDEMVLLPINEPVHGTKRKSQIQTYLEHNEGAGLQHLALMSEDIFRTLREMRKRSSIGGFDFMPSPPPTYYQNLKKRVGDVLSDDQIKECEELGILVDRDDQGTLLQIFTKPLGDRPTIFIEIIQRVGCMMKDEEGKAYQSGGCGGFGKSNFSELFKSIEEYEKTLEAKQLVG | 18 | 4% | 0% |

From patent US20140223597A1, “Mutated Hydroxyphenylpyruvate Dioxygenase, DNA Sequence and Isolation of Plants Which Are Tolerant To HPPD Inhibitor Herbicides” (Bayer CropScience AG, priority 2008, published 2014)
